Our source for the Kd values is paper PMC4930721 (Cancer discovery, 2016).

Where no end group is shown, it is not given here. Me3 = trimethyl-lysine

In this experiment the target is LEDGF PWWP (residues 1-120), 15N-labeled (UniProt O75475 1-120, uniformly 15N-labeled). Description: NMR titration.
Sequence of LEDGF PWWP (residues 1-120), 15N-labeled (O75475 1-120): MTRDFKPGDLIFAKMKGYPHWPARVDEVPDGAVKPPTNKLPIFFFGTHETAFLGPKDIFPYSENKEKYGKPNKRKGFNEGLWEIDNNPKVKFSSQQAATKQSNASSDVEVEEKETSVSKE

Consider ATGGVK(Me3)KPHR [histone H3K36me3 peptide], for which the affinity, expressed as Kd, was 4.4 mM.

For orientation: Kd means the equilibrium constant for the complex coming apart. The low end stands for higher affinity, the high end for lower affinity.
